Experiments:
HeLa Kyoto [1] = test: solubility change mitosis vs G1/S (difference of NP-40 vs SDS log2 ratios) (log2 ratio difference); higher = more soluble in mitosis
HeLa Kyoto [2] = test: solubility in G1/S (NP-40 vs SDS abundance) (log2 ratio); higher = more soluble; settings: cell cycle stage: G1/S
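Throughout, for solubility change mitosis vs G1/S (difference of NP-40 vs SDS log2 ratios): synchronized HeLa Kyoto cells (double thymidine block for G1/S, nocodazole release for mitosis), protein amounts in NP-40 versus SDS lysates quantified by mass spectrometry, three biological replicates.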
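Throughout, for solubility in G1/S (NP-40 vs SDS abundance): HeLa Kyoto cells arrested at G1/S by double thymidine block, proteins quantified by TMT10plex mass spectrometry in mild NP-40 versus SDS extracts, three biological replicates.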

Substance: MEKLYSENEGMASNQGKMENEEQPQDERKPEVTCTLEDKKLENEGKTENKGKTGDEEMLKDKGKPESEGEAKEGKSEREGESEMEGGSEREGKPEIEGKPESEGEPGSETRAAGKRPAEDDVPRKAKRKTNKGLAHYLKEYKEAIHDMNFSNEDMIREFDNMAKVQDEKRKSKQKLGAFLWMQRNLQDPFYPRGPREFRGGCRAPRRDIEDIPYV [TCEAL4]
- solubility change mitosis (log2) (HeLa Kyoto [1]): 0.452
- solubility in G1/S (log2) (HeLa Kyoto [2]): 0.49

Substance: MAEGEGYFAMSEDELACSPYIPLGGDFGGGDFGGGDFGGGDFGGGGSFGGHCLDYCESPTAHCNVLNWEQVQRLDGILSETIPIHGRGNFPTLELQPSLIVKVVRRRLAEKRIGVRDVRLNGSAASHVLHQDSGLGYKDLDLIFCADLRGEGEFQTVKDVVLDCLLDFLPEGVNKEKITPLTLKEAYVQKMVKVCNDSDRWSLISLSNNSGKNVELKFVDSLRRQFEFSVDSFQIKLDSLLLFYECSENPMTETFHPTIIGESVYGDFQEAFDHLCNKIIATRNPEEIRGGGLLKYCNLLVRGFRPASDEIKTLQRYMCSRFFIDFSDIGEQQRKLESYLQNHFVGLEDRKYEYLMTLHGVVNESTVCLMGHERRQTLNLITMLAIRVLADQNVIPNVANVTCYYQPAPYVADANFSNYYIAQVQPVFTCQQQTYSTWLPCN [FAM46A]
- solubility change mitosis (log2) (HeLa Kyoto [1]): -0.172
- solubility in G1/S (log2) (HeLa Kyoto [2]): -0.00125

Substance: MERMNWLSRLASRGPGHRIPQGANLQTPVMADPETCLMVFKNHWSQVVRILERQGPRAAPGGADDLSAVRNHTYQMLTLLAEDRAVPSAPTGPGPLLEFALHEDLLTRVLTWQLQWDELGDGVEERRAEQLKLFEMLVSEARQPLLRHGPVREALLTLLDACGRPVPSSPALDEGLVLLLSQLCVCVAQEPSLLEFFLQPPPEPGAAPRLLLFSRLVPFVHREGTLGQQARDALLLLMALSAGSPTVGRYIADHSYFCPVLATGLSALYSSLPRKIEVPGDDWHCLRREDWLGVPALALFMSSLEFCNAVIQVAHPLVQKQLVDYIHNGFLVPVMGPALHKTSVEEMIASTAYLELFLRSISEPALLRTFLRFLLLHRHDTHTILDTLVARIGSNSRLCMVSLSLFRTLLNLSCEDVLLQLVLRYLVPCNHVMLSQKPAVRDVDLYGRAADKFLSLIPRCCRHHAPSPPRPEHASWARGPGSPSVDSSSVTTVPRPSTPSRLALFLRQQSLGGSESPGPAPCSPGLSASPASSPGRRPTPAEEPGELEDNYLEYLREARRGVDRCVRACRTWSAPYDGERPSPEPSPFGSRTKKRSLLPEEDRNNVGEGEEEELGRRGRAGGAGEGPGHLPPPQLNGVPGSWPEGAKKVRLVPKEGAGELLEGISEGMAGLEGFGQELRELEVALSNGGTGSESPLEPPLPLEEEEAYESFTCPPEPPGPFLSSPLRTLNQLPSQPFTGPFMAVLFAKLENMLQNSVYVNFLLTGLVAQLACHPQPLLRSFLLNTNMVFQPSVKSLLQVLGSVKNKIENFAASQEDFPALLSKAKKYLIARGKLDWAEGPAAGPAPRRSDPLVKSRRPSLGELLLRHAHSPTRARQAAQLVLQPGRDGAGLGLSGGSPGASTPVLLTRGGAPERQGEALRVKNAVYCAVIFPEFLKELAAISQAHAVTSPFLLETSEEGSGPLISGCGPLNP [FAM160A2]
- solubility change mitosis (log2) (HeLa Kyoto [1]): 0.0167
- solubility in G1/S (log2) (HeLa Kyoto [2]): 0.177

Substance: MVVPSLKLQDLIEEIRGAKTQAQEREVIQKECAHIRASFRDGDPVHRHRQLAKLLYVHMLGYPAHFGQMECLKLIASSRFTDKRVGYLGAMLLLDERHDAHLLITNSIKNDLSQGIQPVQGLALCTLSTMGSAEMCRDLAPEVEKLLLQPSPYVRKKAILTAVHMIRKVPELSSVFLPPCAQLLHERHHGILLGTITLITELCERSPAALRHFRKVVPQLVHILRTLVTMGYSTEHSISGVSDPFLQVQILRLLRILGRNHEESSETMNDLLAQVATNTDTSRNAGNAVLFETVLTIMDIRSAAGLRVLAVNILGRFLLNSDRNIRYVALTSLLRLVQSDHSAVQRHRPTVVECLRETDASLSRRALELSLALVNSSNVRAMMQELQAFLESCPPDLRADCASGILLAAERFAPTKRWHIDTILHVLTTAGTHVRDDAVANLTQLIGGAQELHAYSVRRLYNALAEDISQQPLVQVAAWCIGEYGDLLLAGNCEEIEPLQVDEEEVLALLEKVLQSHMSLPATRGYALTALMKLSTRLCGDNNRIRQVVSIYGSCLDVELQQRAVEYDTLFRKYDHMRAAILEKMPLVERDGPQADEEAKESKEAAQLSEAAPVPTEPQASQLLDLLDLLDGASGDVQHPPHLDPSPGGALVHLLDLPCVPPPPAPIPDLKVFEREGVQLNLSFIRPPENPALLLITITATNFSEGDVTHFICQAAVPKSLQLQLQAPSGNTVPARGGLPITQLFRILNPNKAPLRLKLRLTYDHFHQSVQEIFEVNNLPVESWQ [AP1G2]
- solubility change mitosis (log2) (HeLa Kyoto [1]): -0.154
- solubility in G1/S (log2) (HeLa Kyoto [2]): -0.0347

Substance: MGDPGSEIIESVPPAGPEASESTTDENEDDIQFVSEGPLRPVLEYIDLVSSDDEEPSTSYTDENIKRKDHIDYQKDKVALTLARLARHVEVEKQQKEEKNRAFREKIDFQHAHGLQELEFIRGHSDTEAARLCVDQWLKMPGLKTGTINCGTKSSFRRGGHTWVSGKPILCPIMHCNKEFDNGHLLLGHLKRFDHSPCDPTITLHGPFFSSFACVVCYKKFVTQQQYRDHLFDKEATDDGHNNNLLPQIIQCFACPNCFLLFSRKEECSKHMSGKNHFHQSFKLGDNKGIAHPISFPSFAKKLLISLCKDVPFQVKCVACHKTLRSHMELTAHFRVHCRNAGPVAVAEKSITQVAEKFILRGYCPDCNQVFVDETSTQNHKQNSGHKVRVINSVEESVLLYCHSSEGNKDPSSDLHLLLDQSKFSSLKRTMSIKESSSLECIAIPKKKMNLKDKSHEGVACVQKEKSVVKTWFCECNQRFPSEDAVEKHVFSANTMGYKCVVCGKVCDDSGVIRLHMSRIHGGAHLNNFLFWCRTCKKELTRKDTIMAHVTEFHNGHRYFYEMDEVEGETLPSSSTTLDNLTANKPSSAITVIDHSPANSSPRGKWQCRICEDMFDSQEYVKQHCMSLASHKFHRYSCAHCRKPFHKIETLYRHCQDEHDNEIKIKYFCGLCDLIFNVEEAFLSHYEEHHSIDYVFVSEKTETSIKTEDDFPVIETSNQLTCGCRESYICKVNRKEDYSRCLQIMLDKGKLWFRCSLCSATAQNLTDMNTHIHQVHKEKSDEEEQQYVIKCGTCTKAFHDPESAQQHFHRKHCFLQKPSVAHFGSEKSNLYKFTASASHTERKLKQAINYSKSLDMEKGVENDLSYQNIEEEIVELPDLDYLRTMTHIVFVDFDNWSNFFGHLPGHLNQGTFIWGFQGGNTNWKPPLNCKIYNYLNRIGCFFLHPRCSKRKDAADFAICMHAGRLDEQLPKQIPFTILSGDQGFLELENQFKKTQRPAHILNPHHLEGDMMCALLNSISDTTKECDSDDNMGAKNTSIGEEFISTEDVELEEAIRRSLEEM [ZNF451]
- solubility change mitosis (log2) (HeLa Kyoto [1]): -0.197
- solubility in G1/S (log2) (HeLa Kyoto [2]): -0.657

Substance: MAHYKAADSKREQFRRYLEKSGVLDTLTKVLVALYEEPEKPNSALDFLKHHLGAATPENPEIELLRLELAEMKEKYEAIVEENKKLKAKLAQYEPPQEEKRAE [MYCBP]
- solubility change mitosis (log2) (HeLa Kyoto [1]): 0.968
- solubility in G1/S (log2) (HeLa Kyoto [2]): -0.523

Substance: MGA
- solubility change mitosis (log2) (HeLa Kyoto [1]): 0.233
- solubility in G1/S (log2) (HeLa Kyoto [2]): -0.38

Substance: MAGPQPLALQLEQLLNPRPSEADPEADPEEATAARVIDRFDEGEDGEGDFLVVGSIRKLASASLLDTDKRYCGKTTSRKAWNEDHWEQTLPGSSDEEISDEEGSGDEDSEGLGLEEYDEDDLGAAEEQECGDHRESKKSRSHSAKTPGFSVQSISDFEKFTKGMDDLGSSEEEEDEESGMEEGDDAEDSQGESEEDRAGDRNSEDDGVVMTFSSVKVSEEVEKGRAVKNQIALWDQLLEGRIKLQKALLTTNQLPQPDVFPLFKDKGGPEFSSALKNSHKALKALLRSLVGLQEELLFQYPDTRYLVDGTKPNAGSEEISSEDDELVEEKKQQRRRVPAKRKLEMEDYPSFMAKRFADFTVYRNRTLQKWHDKTKLASGKLGKGFGAFERSILTQIDHILMDKERLLRRTQTKRSVYRVLGKPEPAAQPVPESLPGEPEILPQAPANAHLKDLDEEIFDDDDFYHQLLRELIERKTSSLDPNDQVAMGRQWLAIQKLRSKIHKKVDRKASKGRKLRFHVLSKLLSFMAPIDHTTMNDDARTELYRSLFGQLHPPDEGHGD [AATF]
- solubility change mitosis (log2) (HeLa Kyoto [1]): 0.788
- solubility in G1/S (log2) (HeLa Kyoto [2]): -2.12

Substance: MSYCRQEGKDRIIFVTKEDHETPSSAELVADDPNDPYEEHGLILPNGNINWNCPCLGGMASGPCGEQFKSAFSCFHYSTEEIKGSDCVDQFRAMQECMQKYPDLYPQEDEDEEEEREKKPAEQAEETAPIEATATKEEEGSS [CHCHD4]
- solubility change mitosis (log2) (HeLa Kyoto [1]): -0.667
- solubility in G1/S (log2) (HeLa Kyoto [2]): -0.518

Substance: WDFY3
- solubility change mitosis (log2) (HeLa Kyoto [1]): 0.0228
- solubility in G1/S (log2) (HeLa Kyoto [2]): -0.364

Substance: CHD6
- solubility change mitosis (log2) (HeLa Kyoto [1]): -0.0389
- solubility in G1/S (log2) (HeLa Kyoto [2]): -0.23

Substance: MSKLPRELTRDLERSLPAVASLGSSLSHSQSLSSHLLPPPEKRRAISDVRRTFCLFVTFDLLFISLLWIIELNTNTGIRKNLEQEIIQYNFKTSFFDIFVLAFFRFSGLLLGYAVLRLRHWWVIAVTTLVSSAFLIVKVILSELLSKGAFGYLLPIVSFVLAWLETWFLDFKVLPQEAEEERWYLAAQVAVARGPLLFSGALSEGQFYSPPESFAGSDNESDEEVAGKKSFSAQEREYIRQGKEATAVVDQILAQEENWKFEKNNEYGDTVYTIEVPFHGKTFILKTFLPCPAELVYQEVILQPERMVLWNKTVTACQILQRVEDNTLISYDVSAGAAGGVVSPRDFVNVRRIERRRDRYLSSGIATSHSAKPPTHKYVRGENGPGGFIVLKSASNPRVCTFVWILNTDLKGRLPRYLIHQSLAATMFEFAFHLRQRISELGARA [STARD3]
- solubility change mitosis (log2) (HeLa Kyoto [1]): -0.178
- solubility in G1/S (log2) (HeLa Kyoto [2]): -0.0414

Substance: MFPVKVKVEKSELEMAKARNQLDAVLQCLLEKSHMDRERLDEEAGKTPSDTHNKDCSIAATGKRPSARFPHQRRKKRREMDDGLAEGGPQRSNTYVIKLFDRSVDLAQFSENTPLYPICRAWMRNSPSVRERECSPSSPLPPLPEDEEGSEVTNSKSRDVYKLPPPTPPGPPGDACRSRIPSPLQPEMQGTPDDEPSEPEPSPSTLIYRNMQRWKRIRQRWKEASHRNQLRYSESMKILREMYERQ [LIN37]
- solubility change mitosis (log2) (HeLa Kyoto [1]): 0.0692
- solubility in G1/S (log2) (HeLa Kyoto [2]): 0.591

Substance: MGNIFGNLLKSLIGKKEMRILMVGLDAAGKTTILYKLKLGEIVTTIPTIGFNVETVEYKNISFTVWDVGGQDKIRPLWRHYFQNTQGLIFVVDSNDRERVNEAREELMRMLAEDELRDAVLLVFANKQDLPNAMNAAEITDKLGLHSLRHRNWYIQATCATSGDGLYEGLDWLANQLKNKK [ARF3]
- solubility change mitosis (log2) (HeLa Kyoto [1]): -0.299
- solubility in G1/S (log2) (HeLa Kyoto [2]): -0.169
